Assay: soluble fraction after stress (log2 fold change); higher = more stays soluble; pooled small domains, quantitative proteomics
Details: stress: 75 degC
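Note: 20 min heating vs room temperature control held 20 min.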

Row | Sequence | soluble fraction (log2)
1 | HMTQFSASSERAGAGGAYRTTLRAMEQNGDLLQISILLPDAVTAKHAATVWPERAQAIYTAILSELLK | -1.71
2 | HMTQGIDQISFSQFLDKVQSGEVTDVRISGSDITGTLKTGGKFETVAGNYEKIWDLLRENKVVFVVDSP | 0.332
3 | HMTQNSAITNRVLYMQRTLRQYGYAVPESGNFDRTTRAHAAEFLYNATGLPVRENQSVQEFYRAFQRVQG | -1.77
4 | HMTQRRLQSELDSIPGVGAGTRTKLLRTLGSVDAVLRASEAELLAAGANRRQVASIQAHAAAVER | -0.0213
5 | HMTQSQSLQSQFEQLEKAYQDNLHLLSPKQKLIIQEAGKIIQQLPQQAQIQAKVNLYQSLSAEISKESQQ | 0.1
6 | HMTQTDINQIETLVHEGNKLAAVKLLMDTAHIGLKEAKDIIDNFFLGKQTDLQAAVAQVQTR | 0.902
7 | HMTRHIQVNDSIASTPIEDVYFSTRTYNALLNNGISVIGDLSKYTHDDLYASFQGLGRAGVLEIEAYLRQD | -1.43
8 | HMTRHSSVDFAGYILRNKENEPIFGFGKHKGKTVVEVLQREQGYFGWLMEADFPLYTKKVLTAIRLNTLNS | -0.261
9 | HMTRLDLQNAFRVLPPEIQPAAVLFFLQERKQREIAKILGIGLPLVKYRIRKARELLAQFLRKEA | -0.225
10 | HMTRNEFLTALRGRLSALPKEEQDAALKYYEEYFDEAESEEDAARQLGSPDSIAEKILADYA | 0.418
11 | HMTRQNTAVQQSDMAHHKASELTEGMSIVHSHFGRGTIISIETADDPRVTVDFSSEGRKTMLLRFAKFAIE | -0.941
12 | HMTRQRQLIYNIIQRADDHPTAEMIYARAKAEMPSIAFGTVYRNLKLMVDAGEILHIPVAGEPDRYDK | -1.96
13 | HMTRVANIPYSEFLKLVETDKINDVSMVGKTISGHLDDGTKFSTYTPPNDPNLIDKLSKHNVIIKAGPE | -0.000643
14 | HMTRVDKLQTWLSLPREQRDWDEGALMLLQLTGNKIMYRNLSVNPEGKANFIEGKLQQYLEFRLA | -1.25
15 | HMTSAHEKAFDLFDGGKLSEKALLIAVGAERSGFELAGDLRLRTLTAFEDGRLSEDAMIKLL | -0.299
16 | HMTSAIAEGTVIRLTQSTNIRESMSEDAPKVATAFSGEKVTVIMSYAEGWTKVTYGDKTGYIKTELL | -1.1
17 | HMTSAPHHIAAVLRDAIYRGVLEEGGPLHQARIAQSLGVSPIPLREALRLLETEGLVEFRGYRGAFVT | -0.557
18 | HMTSDADSLRDKTGYVAEQVTSKGGKVNLYDGGFDSLYSARSTGETISTGTEIRVVDPGGGNMLVVEPV | 0.948
19 | HMTSDYEPSEKDEKAVIGIAFLRNTDVYDVDIDKAEAIKALKANNDIYQKFVKFFPFVKLPSLYDDFQ | 0.251
20 | HMTSGPAWPALSAQQRSVLAPLQRDWHTIDAARKAKWLEVAARFPSMPAEERQRVQERMAEWA | -0.0911
21 | HMTSKIIIGDSYSKINKLLGEPENMKKRKFLDNEYLMVLYSINKKNYRLYFKDNILFELEDI | -0.991
22 | HMTSLQDLLEELRVIRETLTGSQVLSDMQLFSQLRNLGDIKAALTRMQDNPAAARMVGEVDKLLETMFAS | -1.97
23 | HMTSLSYINDLVTGATAQGLYRIVVPNQFMDDNMANVLRRTYGYQVQSRTSLMGTFDDYIISWAPPM | -2.9
24 | HMTSMTHLGRHPDSEISLDDISVSRRHAEIERQGHEYVLRDSGSLNGTYVNQQRVDSVVLQQGDEIL | 0.48
25 | HMTSPLQIHPNPATKHIELGLESPEVVLIKDINGKTVYQELVAPNQYIDIEHLKNGIYFIESKNKFGKLIK | 0.0829
26 | HMTSPNPLIRSTTPGLETNKKGGIIVDENEMSTRENVFAGGDAVTGAATVILAMGAGKKAAAAIDAKLQN | 0.461

Row | Sequence | soluble fraction (log2)
27 | HMTSPQGIERFLASGVIEGVGKAMAARIVAVFGGQTLEIIEKQPHRLREVRGIGVKTAEKIHASYQEKA | -0.841
28 | HMTSPVEDLLDKAIQLYREENFEEAIAKWEEVLALDPSKLEAKFNIEIAQDRIKEKQIQEDLKSS | 0.341
29 | HMTSQVTVHVVGAVEKPGVVTLDAPSRVQDALEAAGGALPEAELSGVNLARELFDGEQIVVPAQGEDV | 0.342
30 | HMTSSVIIPKLIGKTEEEAKVALAGLNVQVLYETHGDQANGIVIKQSFEEGTKVIKGVSIVITVNKVS | -1.91
31 | HMTSTEQEILIEHMVDRLPALRKKYGISQTELGEKIGLSRQTISAIERKTTPLTWTTMLAILMFFT | -1.82
32 | HMTSTSVKYVNSSSGLNVRKGPSTSYDKVTTLVNGTKVTVISTNNGWSKITSGSITGYVSSQYLSSSS | -1.27
33 | HMTSVAYVIDRINKIQNVYSELEALGLKDEFEKILSNIEDLSKKDIREIKTLLKTKGVIKNLDDLNVKL | 0.762
34 | HMTSVQDLLRNGDRVGYQNGSTVKYWLEEMGFHKKDLLGYVTVEEYAEALQRGSGNGGVSAIVD | -0.811
35 | HMTTARERVYKTLQQWIVNGTLLPEERLNDVELARYFSVSRTPVREALQMLAEQKLVKMVPSSGTFVA | -1.44
36 | HMTTELDTTAITPIIQKVLKANPDVVAKYKAGQQQVIGFLMGQVMRELSTKPNPKELQSLIVAQLQQA | -0.0252
37 | HMTTGEIIQRERTRLGLSQEKLAEQVGVSRQAVSKWELGDAVPDTDKLVPLARTLGISVDTLLD | 0.12
38 | HMTTGGAEELGRTERKIVEQVGRGLSNREIAQVLGLSEGTVRNYLSTILGKLGLRDRTQLAIWSVQTGFAA | 0.21
39 | HMTTHERHEIIELLRQVGDPMRPKEISEALGKPSGAIRFLLSKLTEEGAIKKTGYGQYTYIP | -0.784
40 | HMTTLTPIGKMKGEIDGDFEAFYLAVDKDGQVYLNRDPDYSENRYEKSRGWELVTREQLAVYEKELHFIP | -0.707
41 | HMTTMYKSDVKGINYDVKAKSWFLRITFNGNQIPIGHFKTEEDAINVKQQLIPYIESKDYTSILAVKAKYS | -1.9
42 | HMTTPDIIVPDVKGMTVAEAQKALEEKGFKVKLEEMTQEGAVPGDVIRIDPVAGTKRKEGAKITLLIARG | -0.0237
43 | HMTTQTGTVKWFNEGKGFGFIAPDDGGKDLFAHFKEIQGTGFKTLAENQRVEFEVTQGQKGPQASKI | -0.0331
44 | HMTTQTTKYVNTTAGLNVRTGPSTSYAKIVTLSYGQSVNVLSTSNGWSKINYNGSTGYVSSQYLQSTKPS | -2.28
45 | HMTTSNPMNVTSAEAAFDNGTDRLNAFISGRTTSEERSTYFPLFVRETKEDFLRAVGRFNEYIANHG | 0.055
46 | HMTTTAGTAVVQTGNSGKLNLREQAYSNAGILGRYSNGTIVTVLQKGSAWSYVEVQGQKGYMMSKFLRFT | -2.75
47 | HMTTTFGWENLVGEKGIAATDLHPSGWVTVKDQRVFVVSEGTFIEEGKEVEIMNVDGNRIVVREFKN | 0.216
48 | HMTTTPTSQMVTELRSRGWTLRALAQRLGVGHASINRWANGVTPDRDLVAALRALVASGEVP | -0.833
49 | HMTTTYEINDEMLKPLILEIFNKSKQRFGSTKIAPVLKREGYTASIAKVKTLMNELGIKPVNA | -1.07
50 | HMTTTYTVPKVTGMTLEEAREDPDVVGRFTIVEGEKVTSDTVPVGQIVSQEPAAHRQVGEDGLTITVNIS | 0.634
51 | HMTTVKDRVYEILKREIVLGKLKPGEPINIAVLSTKLNISSAPLREALNMLSRDGLVTLNPRKHAAVSE | -1.31
52 | HMTTVRLNATVPPELALQRLDRVARELFPEYSRNRLQQWIRSGELLVNGSPSGVRDKVPLGAELAVAANLE | -0.657

Row | Sequence | soluble fraction (log2)
53 | HMTTVSINTTGIITASTIRASSALYPPLYTTVQRDAGTFSAGAIIFNSTTSKLEFYDGTTWQSLPG | -0.339
54 | HMTTVTVGSKVRVKAGATFSDGAKPFAEVYNTVYDVQLLSHNGKEARIGIGDQWTGWIYISDLYLANQPAP | -1.84
55 | HMTVEMYIGKTANVLETVTENNGRIAIFGEEWQAKSLNGETIEKGAQAKIVKNDSIIMYVVPI | -0.443
56 | HMTVGENTYELIKKDIIFGVLPPLKKLKLQELKKIYNASVSTLREILSRLTGDGFVFSEEQKGFYVSPV | 0.0263
57 | HMTVKEVGYDTFLTMLDKKEIKQVQVEDNQIIFSDNADPVNYYKTGVFNDPDLVNRLQDAGVEFG | 1.01
58 | HMTVKEYNRAVDEYSDAVWRFIRGNLRDEDRANDIVQDSFEKLWMHVTEIDYSVAKSWLFSTAYNNMIDI | -0.707
59 | HMTVKKLTINEDNSGRRIDNYLLSIFNSLPRSKIYNIIRKGEVRVNSSRIKPNYRLEQGDLVRIPPNLEFT | 0.154
60 | HMTVKRNLVQEILRLKFRHPENFMPNRAFYQEVGINQMRWWDIFYGRKNINQEEYIALSKYF | -0.353
61 | HMTVLPTEQDAKALVGLGEEEAAKIVEGNGWTYRIGSRDGEQFMLTEDFVTSRLTLGIEKAIVMTATI | -0.906
62 | HMTVLSKEEFVAIEQRLLQLLGTAPVDNKILLQQLSGIKKEKAWKVLSFLQAENKIGMDATGRVYL | -0.974
63 | HMTVPDVKGMGARDAVFLLETLGFKVRINGIGQVYEQSIDPGKSYSKGEFISLRL | -0.699
64 | HMTVPNVVGQRILAAQDILKNLGLKVLVDTNLPNSQWGLRNVKSTNPGAGAVVRVGDTVTLIAR | -0.441
65 | HMTVPTEVALELMHATALEDNEQRILYIASFKEKHREHLHATIEVDGQEVTLARYADLVATGAYL | -2.56
66 | HMTVSADIIQKIIKTSTTDENIITIDSISNSISKLALSKITAEDIIEILEASSLVLRNSNGSWTVL | -1.7
67 | HMTVSKLKVINYTIRNGDSLWTISRKFNVTVDKVKEWNGLSDRTLLQPGQKLTLYVDPTIQISH | -1.82
68 | HMTVSLLQTRQRLQALADLGHYKGDLGAAWGPDAIEALKKAQATLGVTVDGKWGPQTEDAIQVALKVQ | -0.237
69 | HMTVTISPGYEGRLLRSYLKNTLSLSTSALARLKTREDGITVNGVRVTVRYVLHAGDLLQLAVD | -0.579
70 | HMTVVHRQVHLQPDQGAFRAALYSHKAVLSEQTDDQGAINLEIRLPESDFLRLLNSSGLKLQDLVP | -0.427
71 | HMTVVSVDDQASASSEAIRTKVAGDSAARMSVDAGGKITWGAGSASGDVTLYRSAANTLKTDDTLVAT | 0.16
72 | HMTYADTRDLLIRRGMELLTEQGIAATSIERVLQSTGIPKGSFYHYFATKHDFTLAVMDAYHHY | -0.157
73 | HMTYAQQIGARIAFLRRLKGLTLAELAERVNKHKSTISKYESGQIIIDIESLKEVADALGVDVAQIVE | -1.26
74 | HMTYFDIAPELLTVYKEINDIPRDINQIVRKTGLSINEVSYKTMILQLEDKIVELPGQRFIRNS | -2.46
75 | HMTYKHLTIDEMKRFLSTREDSQSALVQFARVENVVGNRKGKYAVIKKWFLKNYKEEYNAFLS | 0.0231
76 | HMTYPGSIALVNPKHEAFVQHYVATSGSRGQAAKLAGVTTTTARNLLQDVEATARIRYLNAQQFQ | -0.12
77 | HMTYTGTVTGVDEGGLRVRSSTSTENTSNVITKVYTGDTFDVLDTVYNGSAKWYKIGFTYNGTYTYGYVSA | -1.51

Reference: the domain aggregation screens of Martell et al. (2025)
